Measured values: article PMC6311707

Target: NtermRGS2-GFP-CIBN (R2helix-CIBN component of opto-RGS2, GFP-tagged)
Assay: light-induced membrane translocation

## CRY2-mCherry-(GGGGS)3-RGS2box (CRY2-R2box component of opto-RGS2)
  τoff (time constant of dark reversion from the membrane): 396 s
  τon (time constant of light-induced membrane translocation): 19.7 s
